Assay results reported in patent US9150655B2, “Anti-C-met antibody and methods of use thereof” (ACADEMIA SINICA, priority 2010, dated 2015).

Tests used:
[1] = biological target: T1, endogenous c-Met in cancer cells (Homo sapiens, UniProt P08581); assay: ELISA of scFv binding to human cancer cell lines; type: cell-based
T1 construct: endogenous in cells
Protocol: (§1) The binding activities of anti-c-Met scFvs to endogenous c-Met were analyzed in cancer cells by ELISA (FIG. 9, panel A). […] Normal mouse IgG was used as a control antibody. FACS analysis was performed to verify that […] anti-c-Met scFvs also bound VEGF-stimulated HUVECs. Anti-CD31 antibody and control scFv were used a positive and negative control, respectively (FIG. 9, panel B).

c-MetF932-Fc protein = biological target: T2, c-MetF932-Fc protein (Homo sapiens, UniProt P08581); assay: Competitive ELISA: soluble scFv inhibit HGF binding to immobilized c-Met protein
T2 construct: DNA fragments encoding amino acid residues 1 to 932 and 1 to 567 of c-Met were amplified by PCR; made in house; host or cells: 293T cells, transient transfection, protein G purification from supernatant
T2 sequence (P08581 25-307 limits assumed): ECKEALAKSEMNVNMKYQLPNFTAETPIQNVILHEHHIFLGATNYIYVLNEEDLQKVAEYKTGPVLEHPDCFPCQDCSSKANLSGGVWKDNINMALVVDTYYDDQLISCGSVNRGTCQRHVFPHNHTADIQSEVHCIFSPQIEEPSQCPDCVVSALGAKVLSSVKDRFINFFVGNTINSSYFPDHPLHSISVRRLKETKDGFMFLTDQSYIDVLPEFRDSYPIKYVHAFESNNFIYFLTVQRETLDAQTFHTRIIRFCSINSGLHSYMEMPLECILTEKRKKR
T2 sequence (P08581 308-932 limits assumed): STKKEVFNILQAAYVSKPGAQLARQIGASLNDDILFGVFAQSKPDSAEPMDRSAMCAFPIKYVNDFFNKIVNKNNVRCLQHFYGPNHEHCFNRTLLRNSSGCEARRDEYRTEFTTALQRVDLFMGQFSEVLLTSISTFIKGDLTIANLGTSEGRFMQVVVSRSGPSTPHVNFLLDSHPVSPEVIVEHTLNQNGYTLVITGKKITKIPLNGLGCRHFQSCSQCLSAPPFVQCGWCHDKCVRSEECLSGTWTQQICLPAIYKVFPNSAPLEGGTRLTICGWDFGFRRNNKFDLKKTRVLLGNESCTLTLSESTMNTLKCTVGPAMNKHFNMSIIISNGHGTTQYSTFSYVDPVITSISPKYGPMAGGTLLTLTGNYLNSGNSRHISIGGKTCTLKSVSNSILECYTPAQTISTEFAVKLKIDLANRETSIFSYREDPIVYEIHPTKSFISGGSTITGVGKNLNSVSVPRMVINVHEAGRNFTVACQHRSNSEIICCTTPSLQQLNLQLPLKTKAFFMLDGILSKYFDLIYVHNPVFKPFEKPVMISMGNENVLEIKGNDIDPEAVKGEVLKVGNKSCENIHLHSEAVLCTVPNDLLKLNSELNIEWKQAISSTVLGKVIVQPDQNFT
Protocol: To monitor inhibition effect of scFv, we coated the c-MetF932-Fc protein on a 96-well plate and blocked nonspecific binder with 3% BSA in PBS. 1 nM human HGF (R&D) plus varying concentrations of anti-c-Met scFv or normal mouse IgG were applied to the wells. The amount of HGF bound to c-Met was determined using goat anti-human HGF (R&D), following incubation of HRP-labeled mouse anti-goat IgG (Jackson ImmunoResearch) and OPD substrate (Sigma) plus H2O2. The absorbance was measured with 490 nm using a microplate reader. Inhibition percentage was calculated by the following equation: [(the absorbance of HGF bound without competitor)−(the absorbance of HGF bound with competitor)]/(the absorbance of HGF bound without competitor)×100%.
To test whether the three anti-c-Met scFvs could inhibit HGF binding to c-Met, the human lung cancer cell line H1993 was chosen to undergo competition ELISA (Lutterbach B et al. (2007) Cancer Res 67:2081-2088). […] HGF binding to H1993 cells without competitors was considered 100%. H1993 is known to express a high level of c-Met. When H1993 cells were incubated with HGF in the presence of the phage clones, the binding of HGF to H1993 cells was diminished by more than 90% by the anti-c-Met scFv PC1. PC20 inhibited more than 50% of HGF binding to c-Met (FIG. 2, panel A). The competitive inhibition of HGF by different concentrations of soluble scFvs was also tested. Normal mouse IgG (NMIgG) was used as a negative control. HGF binding to immobilized c-Met protein without competitors was considered 100%.

VEGF-stimulated HUVECs = assay: FACS of scFv binding to VEGF-stimulated HUVECs; type: cell-based, human
Protocol: as §1

c-Met = biological target: T3, c-Met (Homo sapiens, UniProt P08581); assay: HGF-induced c-Met phosphorylation in A549 cells (Western blot); type: cell-based; conditions: A549 cells co-treated with HGF and S1 at 37° C. for 15 min; relative to cells without S1
T3 construct: endogenous in cells; host or cells: A549
Protocol: Since the anti-c-Met scFv S1 presented superiorly competitive capability, whether S1 would antagonize HGF to activate c-Met in cancer cells was examined. A549 cells were co-treated with HGF and S1 at 37° C. for 15 min. Total cell lysate was subjected to Western blotting using anti-tyrosine-phosphorylated c-Met antibody and an antibody against the c-Met β-chain (c-Met). Quantification of phosphorylated c-Met was based on luminescence intensity and normalized with total c-Met.

c-Met932-Fc protein = biological target: T4, c-Met932-Fc protein (Homo sapiens, UniProt P08581); assay: Binding kinetics of anti-c-Met scFv by SPR (BIAcore)
T4 construct: DNA fragments encoding amino acid residues 1 to 932 and 1 to 567 of c-Met were amplified by PCR; made in house; host or cells: 293T cells, transient transfection, protein G purification from supernatant
T4 sequence (P08581 25-307): as the sequence (P08581 25-307 limits assumed) above
T4 sequence (P08581 308-932): as the sequence (P08581 308-932 limits assumed) above
Protocol: The affinity and kinetics of anti-c-Met scFv were measured by SRP in BIAcore X (GE healthcare). In BIAcore flowcell, 30 μg/ml of c-MetF932-Fc protein was coupled to EDC- and NHS-activated CM5 sensor chip followed by blocking with ethanolamine according to manufacturer's directions. Associated and dissociated phases were monitored for 3 and 5 min, respectively, under continuous flow of 30 μl/min using scFv concentrations ranging 5 to 200 nM. Regeneration was performed by injection of regenerate buffer (0.2 M NaCl, 10 mM glycine, pH 2.7). To determine binding constants, the sensorgrams were fit globally to a sample 1:1 interaction model using BIAevaluation software (GE healthcare).
Binding kinetic constants (Kon and Koff) and affinity of each soluble scFv for c-Met932-Fc protein were measured by Surface Plasmon Resonance (SPR).
Kon and Koff were measured by SRP in a BIAcore using purified scFvs, and the Kd was calculated by BIAevaluation software.

[2] = biological target: T5, endogenous c-Met on H460 cells (Homo sapiens, UniProt P08581); assay: FACS of scFv binding to H460 and c-Met knockdown H460 cells; type: cell-based
T5 construct: endogenous in cells; host or cells: H460 and MET-KD H460
T5 sequence (P08581 25-1390): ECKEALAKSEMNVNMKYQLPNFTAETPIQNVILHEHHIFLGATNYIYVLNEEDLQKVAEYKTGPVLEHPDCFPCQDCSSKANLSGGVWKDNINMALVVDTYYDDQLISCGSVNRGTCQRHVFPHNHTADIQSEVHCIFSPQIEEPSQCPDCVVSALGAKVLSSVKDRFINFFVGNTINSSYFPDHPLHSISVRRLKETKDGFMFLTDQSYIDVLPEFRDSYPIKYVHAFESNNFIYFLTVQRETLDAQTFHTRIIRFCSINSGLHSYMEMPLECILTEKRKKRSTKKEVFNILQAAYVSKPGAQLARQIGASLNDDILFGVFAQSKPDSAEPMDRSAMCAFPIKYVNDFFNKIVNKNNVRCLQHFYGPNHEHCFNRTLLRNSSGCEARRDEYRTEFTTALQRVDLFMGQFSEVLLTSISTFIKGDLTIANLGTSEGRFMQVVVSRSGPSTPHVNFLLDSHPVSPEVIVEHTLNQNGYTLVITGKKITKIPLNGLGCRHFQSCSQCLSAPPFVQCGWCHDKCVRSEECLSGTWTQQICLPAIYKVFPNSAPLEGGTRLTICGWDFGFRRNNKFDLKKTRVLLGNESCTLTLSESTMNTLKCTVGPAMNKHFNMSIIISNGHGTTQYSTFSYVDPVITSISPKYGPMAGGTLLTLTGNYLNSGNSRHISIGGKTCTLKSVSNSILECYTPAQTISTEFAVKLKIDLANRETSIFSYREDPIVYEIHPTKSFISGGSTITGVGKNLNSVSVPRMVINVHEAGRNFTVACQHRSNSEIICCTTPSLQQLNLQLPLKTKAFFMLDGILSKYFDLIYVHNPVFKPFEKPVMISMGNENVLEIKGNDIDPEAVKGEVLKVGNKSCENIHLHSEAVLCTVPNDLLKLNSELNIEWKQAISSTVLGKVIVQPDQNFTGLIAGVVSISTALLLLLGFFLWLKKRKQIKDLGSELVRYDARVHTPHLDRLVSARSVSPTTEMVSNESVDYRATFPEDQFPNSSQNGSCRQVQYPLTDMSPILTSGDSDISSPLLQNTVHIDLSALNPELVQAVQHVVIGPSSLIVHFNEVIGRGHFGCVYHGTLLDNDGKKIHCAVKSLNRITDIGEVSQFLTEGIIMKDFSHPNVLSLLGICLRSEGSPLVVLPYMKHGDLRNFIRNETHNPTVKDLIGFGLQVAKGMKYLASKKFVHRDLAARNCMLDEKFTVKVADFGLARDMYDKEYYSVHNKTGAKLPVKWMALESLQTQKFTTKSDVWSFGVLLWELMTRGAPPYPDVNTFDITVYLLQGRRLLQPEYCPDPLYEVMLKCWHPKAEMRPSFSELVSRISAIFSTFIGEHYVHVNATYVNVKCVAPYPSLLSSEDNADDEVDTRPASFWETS
Protocol: To further confirm that the anti-c-Met scFv would bind specifically to endogenous c-Met on human cancer cells, H460 cells and c-Met knockdown H460 cells were stained with anti-c-Met scFv, either S1 or S20, and FACS analysis was carried out (FIG. 10, panel B).

c-Met567-Fc protein = biological target: T6, c-Met567-Fc protein (Homo sapiens, UniProt P08581); assay: Epitope ELISA on c-Met932-Fc and c-Met567-Fc; type: binding; conditions: immobilized recombinant proteins
T6 construct: DNA fragments encoding amino acid residues 1 to 932 and 1 to 567 of c-Met were amplified by PCR; made in house; host or cells: 293T cells, transient transfection, protein G purification from supernatant
T6 sequence (P08581 25-567): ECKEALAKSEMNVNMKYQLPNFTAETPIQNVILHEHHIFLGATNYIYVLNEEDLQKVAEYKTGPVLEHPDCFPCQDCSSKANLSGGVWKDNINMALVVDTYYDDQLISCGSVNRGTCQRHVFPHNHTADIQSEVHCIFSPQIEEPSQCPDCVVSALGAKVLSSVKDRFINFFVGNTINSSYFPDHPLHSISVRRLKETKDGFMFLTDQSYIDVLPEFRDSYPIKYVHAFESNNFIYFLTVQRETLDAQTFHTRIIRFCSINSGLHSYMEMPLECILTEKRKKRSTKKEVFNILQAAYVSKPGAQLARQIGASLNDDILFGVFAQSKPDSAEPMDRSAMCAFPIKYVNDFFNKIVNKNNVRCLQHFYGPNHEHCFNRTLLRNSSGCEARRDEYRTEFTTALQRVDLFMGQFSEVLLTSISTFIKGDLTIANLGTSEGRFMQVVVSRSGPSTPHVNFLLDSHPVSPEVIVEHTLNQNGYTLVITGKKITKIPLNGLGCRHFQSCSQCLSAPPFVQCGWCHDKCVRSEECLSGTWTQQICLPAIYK
Protocol: Therefore, binding epitopes of anti-c-Met scFvs localized within HGF binding domain of c-Met were investigated. The binding ability of anti-c-Met scFvs was examined for c-Met932-Fc protein including whole extracellular domain of c-Met, and c-Met567-Fc protein containing Sema and PSI domain, both of which have been defined as HGF binding regions (FIG. 2, panel C). The c-Met recombinant proteins were immobilized on titer wells, and incubated with anti-c-Met scFvs. Anti-c-Met polyclonal antibody and anti-E tag antibody was used as a positive and negative control, respectively. […] The binding intensity of S1 for c-Met932-Fc was similar to that for c-Met567-Fc.

[3] = purified scFv, c-MetF932-Fc on CM5 chip

T1 sequence (P08581 25-1390): as the sequence (P08581 25-1390) above

B1: S1: soluble anti-c-Met scFv corresponding to phage clone PC1; VH/VL sequences in Table 1 (protein)
scFv: MAQVQLQQSGPGLVKPSQTLSLTCDISGDSVSSNSAAWNWIRQSPSRGLEWLGRTYYRSRWYNEYAVSVRGRISINAETSKNQFSLQLNSVTPEDTAIYYCARAGFCSGGNCYPGSEDAFDLWGQGTMVTVGGGGSGGGGSGGGGSDVVMTQSPPSLSVSVGDRVTITCRASQDITNDLNWYQQKPGKAPQLLIYHASELETGVPSRFSGSGFGTDFTLTISSLQPADIATYYCQQYDDLPLTFGGGTKVEIKR
modifications: left off: small tags and cut ends
Reactivity with A498, U2OS and NNM cells ([1]; A498, U2OS, NNM cells): did not react | Binding to human cancer cell lines ([1]; SKOV3, Mahlavu, SAS, PC3, MDA-MB-231, HCT116, Paca-2, NPC-TW04, H1993 cells, vs control antibody): found to bind | IC50 (c-MetF932-Fc protein; 1 nM human HGF, immobilized c-Met protein, soluble scFv): 27.4 nM | Inhibition of binding activity of HGF to c-Met (c-MetF932-Fc protein; different concentrations of soluble scFv): dose-dependently inhibited | Binding to VEGF-stimulated HUVECs (VEGF-stimulated HUVECs): bound | Inhibition of HGF-induced c-Met phosphorylation (c-Met): 65.7% | Kd (c-Met932-Fc protein; purified scFv 5 to 200 nM, c-MetF932-Fc coupled to CM5 chip, Kd calculated by BIAevaluation software): 6.82 nM | Koff (c-Met932-Fc protein; [3]): 0.00134 s⁻¹ | Kon (c-Met932-Fc protein; [3]): 215000 M⁻¹ s⁻¹ | Binding activity in c-Met knockdown H460 cells ([2]; c-Met knockdown H460): dramatically decreased | Binding to H460 cells ([2]; c-Met wildtype H460): able to bind | Binding to c-Met567-Fc compared to c-Met932-Fc (c-Met567-Fc protein): similar
